The values below come from US20260241049A1, “Radiopharmaceutical Compositions Targeting Glypican-3 and Uses Thereof” (RayzeBio, Inc., priority 2023, published 2026).

Starred links: 1 amine or outer side, 2 acyl side, 3 side chain; linkers in the order of their positions; H or OH if unused. Positions of bridges follow the written chain, without caps; N, C: chain ends. Non-standard residues stand in square brackets, D forms with d. Primed or numbered codes have the meaning given here. MeKCOpipzaa″ = (2S)-6-{[4-(carboxymethyl)piperazine-1-carbonyl]amino}-2-(methylamino)hexanoic acid, CN([C@@H](CCCCNC(=O)N1CCN(CC(=O)[*:3])CC1)C(=O)[*:2])[*:1]; MeDapCOpipzaa = 3-(4-(carboxymethyl)piperazine-1-carboxamido)-2-(methylamino)propanoic acid, CN([C@@H](CNC(=O)N1CCN(CC(=O)[*:3])CC1)C(=O)[*:2])[*:1]; MeKCOpipzaa = N-alpha-methyl-N6-[4-(carboxymethyl)piperazine-1-carbonyl]-L-lysine, CN([C@@H](CCCCNC(=O)N1CCN(CC(=O)[*:3])CC1)C(=O)[*:2])[*:1]; MeA4paa = 3-(1-(carboxymethyl)piperidin-4-yl)-2-(methylamino)propanoic acid, CN([C@@H](CC1CCN(CC(=O)[*:3])CC1)C(=O)[*:2])[*:1]; 3Py6NHaa = 2-amino-3-(6-((carboxymethyl)amino)pyridin-3-yl)propanoic acid, O=C([C@H](Cc1ccc(NCC(=O)[*:3])nc1)N[*:1])[*:2]; MeHseMe(3) = N-methyl-O-methyl-homoserine, 4-methoxy-2-(methylamino)butanoic acid, COCC[C@@H](C(=O)[*:2])N(C)[*:1]; F4aao″ = 2-amino-3-(4-(carboxymethoxy)phenyl)propanoic acid, O=C([C@H](Cc1ccc(OCC(=O)[*:3])cc1)N[*:1])[*:2]; TMe(3) = O-methyl-L-threonine ((2S,3R)-2-amino-3-methoxybutanoic acid), CO[C@H](C)[C@H](N[*:1])C(=O)[*:2]; F4aao = 4-(carboxymethoxy)-L-phenylalanine, O=C([C@H](Cc1ccc(OCC(=O)[*:3])cc1)N[*:1])[*:2]; MeHseMe = N-methyl-O-methyl-L-homoserine, COCC[C@@H](C(=O)[*:2])N(C)[*:1]; Thr(Me)″ = TMe = O-methyl-L-threonine, CO[C@H](C)[C@H](N[*:1])C(=O)[*:2]; Hgn = 2,6-diamino-6-oxohexanoic acid, NC(=O)CCC[C@H](N[*:1])C(=O)[*:2]; Phe(4-(1-Me-pyrazol-4-yl)) = Cn1cc(-c2ccc(C[C@H](N)C(=O)O)cc2)cn1; TMe = O-methyl-L-threonine, CO[C@H](C)[C@H](N[*:1])C(=O)[*:2]; NMeAla(isoquinolin-7-yl) = CN[C@@H](Cc1ccc2ccncc2c1)C(=O)O; Phe(4-CH2COOH) = N[C@@H](Cc1ccc(CC(=O)O)cc1)C(=O)O; 3Pal(6-Ph) = N[C@@H](Cc1ccc(-c2ccccc2)nc1)C(=O)O; Phe(4-COOH) = N[C@@H](Cc1ccc(C(=O)O)cc1)C(=O)O; S3REt = (3R)-2-amino-3-hydroxypentanoic acid; NMe2Nal = CN[C@@H](Cc1ccc2ccccc2c1)C(=O)O; AEF = NCCOc1ccc(C[C@H](N)C(=O)O)cc1; NMeY = CN[C@@H](Cc1ccc(O)cc1)C(=O)O; NMeI = CC[C@H](C)[C@H](NC)C(=O)O; NMeQ = CN[C@@H](CCC(N)=O)C(=O)O; NMeK = CN[C@@H](CCCCN)C(=O)O; NMeC = CN[C@@H](CS)C(=O)O; NMeA = CN[C@@H](C)C(=O)O; MeK = methyl-L-lysine

For the assay, the target named is T1, Human Glypican3-Fc (ACRO Biosystems, GP3-H5258) (human, UniProt P51654 25-559).
T1 construct: Bought fusion protein, captured in Methods B-2, B-3 and B-4; Catalogue number is printed only in Method B-2; not shown: Fc part of the bought fusion
The assay can be described thus: SPR (Biacore T200), Method B-3: Glypican3-Fc captured on Protein A chip, peptide as analyte. On the procedure: A Protein A sensor chip (Cytiva) was inserted into a Biacore T200 (Cytiva), priming was performed three times with a running buffer: HBS-P+, pH 7.4 (Cytiva), and equilibration was carried out at a flow rate of 30 μL/min. Glypican3-Fc was allowed to react for 60 seconds at a flow rate of 10 μL/min. After capturing human Glypican3-Fe, a peptide solution prepared to 10 mM in DMSO solution was diluted with a running buffer to a final concentration of 10 μM. […] Using the above samples, peptide kinetics for Glypican3 was obtained by SPR measurement. Kinetics evaluation of Glypican3 was performed by SPR measurements at a flow rate of 10 LL/min, setting the association time to 120 seconds and the disassociation time to 600 seconds.
The obtained data by Method B-1, Method B-2, Method B-3 and Method B-4 were analyzed by follow. Single Cycle Kinetics was used as the kinetics evaluation model, and curve fitting was performed using Biacore T200 Evaluation Software Version 3.0 (Cytiva).

As usually defined, the Kd is the equilibrium constant for the complex coming apart.

B1: Macrocyclic peptide of Example 2-53 (SEQ ID No. 28) (peptide)
peptide: {CH2CO}-[NMeQ][NMeQ]D[NMeQ][Phe(4-COOH)]II[AEF][NMe2Nal]G[Phe(4-(1-Me-pyrazol-4-yl))][NMeC]-NH2
modifications: thioether N-12
SMILES: CC[C@H](C)[C@@H]1NC(=O)[C@H](Cc2ccc(C(=O)O)cc2)NC(=O)[C@H](CCC(N)=O)N(C)C(=O)[C@H](CC(=O)O)NC(=O)[C@H](CCC(N)=O)N(C)C(=O)[C@H](CCC(N)=O)N(C)C(=O)CSC[C@@H](C(N)=O)N(C)C(=O)[C@H](Cc2ccc(-c3cnn(C)c3)cc2)NC(=O)CNC(=O)[C@H](Cc2ccc3ccccc3c2)N(C)C(=O)[C@H](Cc2ccc(OCCN)cc2)NC(=O)[C@H]([C@@H](C)CC)NC1=O
Consider B1, for which the Kd stood at 1 nM.

B2: Macrocyclic peptide of Example 2-40 (SEQ ID No. 66) (peptide)
peptide: {CH2CO}-[NMeA][NMeY]DY[TMe]IY[NMe2Nal]G[3Pal(6-Ph)][NMeC]-NH2
modifications: thioether N-11
SMILES: CC[C@H](C)[C@@H]1NC(=O)[C@H]([C@@H](C)OC)NC(=O)[C@H](Cc2ccc(O)cc2)NC(=O)[C@H](CC(=O)O)NC(=O)[C@H](Cc2ccc(O)cc2)N(C)C(=O)[C@H](C)N(C)C(=O)CSC[C@@H](C(N)=O)N(C)C(=O)[C@H](Cc2ccc(-c3ccccc3)nc2)NC(=O)CNC(=O)[C@H](Cc2ccc3ccccc3c2)N(C)C(=O)[C@H](Cc2ccc(O)cc2)NC1=O
notes: 11 residues
Molecule B2 yielded a Kd of 21.5 nM.

Turning to {CH2CO}-[MeKCOpipzaa″][MeHseMe]D[NMeQ][Phe(4-COOH)][S3REt]IY[NMeAla(isoquinolin-7-yl)]G[3Pal(6-Ph)][NMeC]-NH2 (thioether N-12) [Macrocyclic peptide of Example 2-25 (SEQ ID No. 59)], binding was characterised by a dissociation constant (Kd) of 6.6 nM.

{CH2CO}-[NMeK][MeKCOpipzaa]D[MeDapCOpipzaa][Phe(4-COOH)][Thr(Me)″]I[F4aao][NMeAla(isoquinolin-7-yl)]G[3Pal(6-Ph)][NMeC]-NH2 (thioether N-12) [Macrocyclic peptide of Example 2-29 (SEQ ID No. 46)] came in with a Kd of 1 nM.

The molecule {CH2CO}-[MeK][NMeQ][Hgn][NMeQ][Phe(4-COOH)][TMe(3)]IY[NMe2Nal]G[Phe(4-(1-Me-pyrazol-4-yl))][NMeC]-NH2 (thioether N-12) [Macrocyclic peptide of Example 2-54 (SEQ ID No. 29)] returned a dissociation constant Kd of 0.1 nM.

Turning to {CH2CO}-[NMeK][MeKCOpipzaa]D[MeDapCOpipzaa][3Py6NHaa][Thr(Me)″]I[F4aao][NMeAla(isoquinolin-7-yl)]G[3Pal(6-Ph)][NMeC]-NH2 (thioether N-12) [Macrocyclic peptide of Example 2-30 (SEQ ID No. 47)], binding was characterised by a dissociation constant (Kd) of 6.6 nM.

B3: Macrocyclic peptide of Example 2-38 (SEQ ID No. 55) (peptide)
peptide: KSDXFTIXFGXC
modifications: not fully specified; MeKCOpipzaa-MeHseMe-D-MeDapCOpipzaa-F4COO-TMe-I-Yae-MeNal27N-G-3Py6Ph-MeC-NH2; thioether ring from N-terminal acetyl to MeC12
B3 had a dissociation constant (Kd) of 1.8 nM.

The molecule {CH2CO}-[MeK][NMeQ]D[MeA4paa][Phe(4-COOH)][TMe(3)]I[Phe(4-CH2COOH)][NMe2Nal]G[Phe(4-(1-Me-pyrazol-4-yl))][NMeC]-NH2 (thioether N-12) [Macrocyclic peptide of Example 2-51 (SEQ ID No. 25)] had a Kd of 2.5 nM.

B4: Macrocyclic peptide of Example 2-42 (SEQ ID No. 31) (peptide)
peptide: {CH2CO}-[NMeK][NMeI]D[NMeQ][Phe(4-COOH)][TMe]I[F4aao″][NMeAla(isoquinolin-7-yl)]G[3Pal(6-Ph)][NMeC][dE]-NH2
modifications: thioether N-12
SMILES: CC[C@H](C)[C@@H]1NC(=O)[C@H]([C@@H](C)OC)NC(=O)[C@H](Cc2ccc(C(=O)O)cc2)NC(=O)[C@H](CCC(N)=O)N(C)C(=O)[C@H](CC(=O)O)NC(=O)[C@H]([C@@H](C)CC)N(C)C(=O)[C@H](CCCCN)N(C)C(=O)CSC[C@@H](C(=O)N[C@H](CCC(=O)O)C(N)=O)N(C)C(=O)[C@H](Cc2ccc(-c3ccccc3)nc2)NC(=O)CNC(=O)[C@H](Cc2ccc3ccncc3c2)N(C)C(=O)[C@H](Cc2ccc(OCC(=O)O)cc2)NC1=O
B4: the Kd turned out to be 3.2 nM.

On to {CH2CO}-[MeK][MeHseMe(3)]D[NMeQ][Phe(4-COOH)]II[Phe(4-CH2COOH)][NMe2Nal]G[Phe(4-(1-Me-pyrazol-4-yl))][NMeC]-NH2 (thioether N-12) [Macrocyclic peptide of Example 2-48 (SEQ ID No. 22)], for which the Kd stood at 0.5 nM.

For {CH2CO}-[NMeQ][NMeQ]D[MeK][Phe(4-COOH)]II[Phe(4-CH2COOH)][NMe2Nal]G[Phe(4-(1-Me-pyrazol-4-yl))][NMeC]-NH2 (thioether N-12) [Macrocyclic peptide of Example 2-52 (SEQ ID No. 26)], the Kd worked out at 1.6 nM.
